# Test results from patent US20250092134A1.
# Residue numbers refer to the chain shown, from its start.
# B1: 21G11A8 (antibody, V domains shown)
# VH: EVQLQESGPDLKKPGETVKISCKASGYTFTTYGMNWVKQAPGKGLKWMGYLNTYSGVSTYADDFKGRFAFSLETSANTAYLQINNLRNDDTATYFCARWGNYGAMDYWGQGTSVTVSS
# VL: DIKMTQSPLSLPVSLGDQASISCRSSQSIVRSNGFTYLEWYLQKPGQSPELLIYKVSNRFSGVPDRFSGSGSGTDFTLKISRVEAEDLGVYYCFQSSHVPRTFGGGTKLEIK
# B2: 28D2E8 (antibody, IgG1, V domains shown)
# VH: EVQLQESGPGLVKPSQSLSLTCSVTGYFISSGYYWKWIRQFPGNKLEWMGYISYDGSNNYNPSLKNRISITRDTSKNQFFLKLNSVTAEDTATYYCARGGGYVPVWGTGTTVTVSS
# VL: B1 VL with F35N, E50K
# B3: 21G11D5 (antibody, V domains shown)
# VH: B1 VH
# VL: B1 VL with K3V
# B4: 28D2E6 (antibody, IgG1, V domains shown)
# VH: B2 VH
# VL: B1 VL with K3Q, F35N, E50K
# B5: 28C9A5 (antibody, IgG2b, V domains shown)
# VH: EVQLQESGAELVRPGTSVKMSCKASGYTFTHYWIDWTKQRPGHGLEWIGNIYPGGGYTNYNENFKGKATLTADKSSSTVFMQFSSLTSDDSAIYYCTRKGYYYGSDWYFDVWGTGTTVTVSS
# VL: QIVLSQSPAIMSASPGEKVTMTCSASSSVSYMHWYQQKSGTSPKRWIYDTSKLASGVPARFSGSGSGTSYSLTISSMEAEDAATYYCQQWSSNPYTFGGGTKLEIK
# B6: 28B2A2 (antibody, IgG2a, V domains shown)
# VH: EVQLQESGPELVKPGASVKMSCKASGYTFTDDNMHWVKQSHGKSLEWIGYINPNNNHTNYNQKFKGKATLTVNKSSSTAYMELRSLTSEDSAVYFCARSTVVPFYAMDYWGQGTSVTVSS
# VL: DIVMTQSPASLSMAIGEKVTIRCITITDIDDDMNWYQQKPGEPPKLLFSEGNTLRPGVPSRFSSSGYGSDFAFTIENMLSEDVADYYCLQSDNLPLTFGAGTKLELK
# B7: 28B2A4 (antibody, IgG2a, V domains shown)
# VH: B6 VH
# VL: B6 VL with V3Q, A100G, L106I
# B8: 28B2F5 (antibody, IgG2a, V domains shown)
# VH: B6 VH
# VL: B6 VL with V3K
# B9: 20A9A9 (antibody, V domains shown)
# VH: EVQLQESGPGLVQPSQSLSITCTVSGFSLTSYGVHWVRQSPGKGLEWLGIIWSAGGTDYNAAFISRLSISKDNSKSQIFFKLNSLHADDTAIYFCARGSFYDYGRLDYWGQGTTLTVSS
# VL: DIVMTQSHRFMSTSVGDRVSITCKASQDVSTAVAWYQQKPGQSPKLLIYSSSYRYTGVPDRFTGSGSGTDFTFTISSVQAEDLAVYYCQQHYGTPYTFGGGTKLEIQ
# B10: 23A9B10 (antibody, V domains shown)
# VH: B2 VH with F28S, S30T, K36N, P42L, S53T, N66D, K82N, A88T, E89D
# VL: IQMTQSPAFLSVSPGERVSFSCRASQNIGTSIHWYQQRTNGSPRLLIKYASESISGIPSRFSGSGSGTDFTLSINSVESEDFADYYCHQSHNWPTTFGAGTKLELK
# B11: 23A9C10 (antibody, V domains shown)
# VH: B2 VH with F28S, S30T, K36N, P42L, S53T, N66D, K82N, A88T, E89D
# VL: DIQMTQSPAFLSVSPGERVSFSCRASQNIGTSIHWYQQRTNGSPRLLIKYASESISGIPSRFSGSGSGTDFTLSINSVESEDFADYYCHQSHNWPTTFGAGTKLELK
# B12: 23A9F7 (antibody, V domains shown)
# VH: B2 VH with F28S, S30T, K36N, P42L, S53T, N66D, K82N, A88T, E89D
# VL: B11 VL with I2V
# Target: TCR Vβ17 on T cells of PBMCs
# Assay: flow cytometry on PBMCs, percent of cells stained
# Sequence of TCR Vβ17 on T cells of PBMCs (A0A075B6N1 22-114): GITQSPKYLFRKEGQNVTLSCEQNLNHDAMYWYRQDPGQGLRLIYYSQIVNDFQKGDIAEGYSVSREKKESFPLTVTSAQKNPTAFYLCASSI
row,PBMC binding (%),Binder
1,2.96,B1
2,3.3,B2
3,3.06,B3
4,3.27,B4
5,3.27,B5
6,3.13,B6
7,2.97,B7
8,3.2,B8
9,2.7,B9
10,2.74,B10
11,3.2,B11
12,2.32,B12

# Target: HuTCR Vb17 × Va12 (SKW3-2) (human)
# Assay: flow cytometry on SKW3-2 cells
# Sequence of HuTCR Vb17 × Va12 (SKW3-2) (human) (A0A075B6N1 22-114): as above
row,MFI [MFI],Binder
1,38900,B1
2,50000,B2
3,56300,B3
4,53800,B4
5,56900,B5
6,36500,B6
7,53800,B7
8,36600,B8
9,43100,B9
10,6600,B10
11,3210,B11
12,3400,B12

# Target: HuTCR Vb17 × Va10.2 (SKW3_1) (human)
# Assay: flow cytometry on SKW3-1 cells
# Sequence of HuTCR Vb17 × Va10.2 (SKW3_1) (human) (A0A075B6N1 22-114, chain 1 of 2): as the sequence (A0A075B6N1 22-114) above
# Sequence of HuTCR Vb17 × Va10.2 (SKW3_1) (human) (A0A087WT01 20-109, chain 2 of 2, further chain): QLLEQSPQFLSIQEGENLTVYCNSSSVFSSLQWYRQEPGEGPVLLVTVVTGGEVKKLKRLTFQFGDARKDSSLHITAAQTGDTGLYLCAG
row,MFI [MFI],Binder
1,48700,B1
2,43600,B2
3,47500,B3
4,38000,B4
5,55200,B5
6,77400,B6
7,45700,B7
8,81800,B8
9,39500,B9
10,10100,B10
11,7660,B11
12,8600,B12

# Target: HuTCR Vb7/9 × Va10.2 (SKW3-3) (human)
# Assay: flow cytometry on SKW3-3 cells (no Vβ17)
row,MFI [MFI],Binder
1,532,B1
2,452,B2
3,427,B3
4,441,B4
5,438,B5
6,434,B6
7,472,B7
8,438,B8
9,448,B9
10,507,B10
11,458,B11
12,466,B12

# Target: TCR Vβ17 on T cells of PBMCs
# Assay: cell-based or functional assay
row,"Proliferation (EC50, ug/ml) [µg/mL]",Binder
1,> 5,B1
2,2,B3
3,0.3,B4
4,0.9,B5
5,> 5,B7
6,0.7,B8
7,> 5,B9

# Target: Vβ17 (on cells expressing Vβ17)
# Assay: cell-based or functional assay
# Sequence of Vβ17 (on cells expressing Vβ17) (A0A075B6N1 22-114): as the sequence (A0A075B6N1 22-114) above
row,Cell Internalization (EC50) [nM],Binder
1,< 0.07,B6
2,< 0.07,B7
3,< 0.07,B8
